In one assay the target is PAD4 (Homo sapiens, UniProt Q9UM07). Description: Conversion (R to Cit) of substrate peptides by PAD4, mass spectrometry. In kind it is biochemical. As to conditions: for Conversion: Table 7, PAD4, test system with 3 times less enzyme; for Conversion by PAD4 (%): Table 10; for Conversion (%): PAD4. An excerpt:
From previous studies it was known that D-S-Q-F-A-F-R-G-A-S-A-S-D (designated here as L1: SEQ ID NO: 11) is a substrate for PAD2 and PAD 4. To obtain better substrates, and subsequently powerful inhibitors, we intended to identify structural elements that improve substrate properties. A set of 152 individual analog peptides was generated, each differing from L1 by one amino acid at one of the positions −4 to −1 or 1 to 4.
In Table 3 the conversion of each analog (R to Cit conversion) is depicted. Values of the analogs relate to the conversion of the analog compared to the conversion of L1 under standard conditions (100 means a conversion equal to L1, 50 means conversion of 50% of that of L1, 175 means conversion of 175% of that of L1). Numbers above 100 thus relate to amino acid substitutions that improve substrate properties.
Peptides of table 4 are represented by the following sequences SEQ ID NO: 22-31 and 33-46. Control peptide are represented by the following sequences SEQ ID NO: 11 as control L1 and SEQ ID NO: 32 as control L2. Unfortunately, a substantial number of designed peptides were too polar to be analyzed on our LC-MS system (indicated in Table 4 as n.t., not trapped on the column). We therefore also generated and tested these peptides containing two additional N-terminal F-residues to increase hydrophobicity. In this form peptides were trapped on the column and could be analyzed (see Table 5).
Based on the above results we designed 20 peptides containing multiple amino acids that improve substrate properties (see Table 7). The indicated peptides were synthesized and tested in order to identify the best substrate from this group. Here we used a test system with less enzyme (3 times less) compared to the experiments described above.
(§1) Conversion of arginine into citrulline in the substrate peptides by PAD2 or PAD4 using mass spectrometry was performed as follows. A candidate substrate peptide was incubated with a PAD as indicated for several hours at 37° C. The reaction was quenched by the addition with acetic acid. A sample was analysed on a Qtof mass spectrometer (Micromass, UK) and the mass spectrum was compared with that of the same peptide not treated with PAD. Normally, 2^+- and 3^+-ions are detected. The conversion (ΔM=0.98 Da) was calculated on the 2^+- and 3^+-ions individually, and subsequently averaged taking into account the relative peak height of the 2^+- and 3^+-signals (see FIG. 5).

The target in the next assay is PAD2 (Homo sapiens, UniProt Q9Y2J8). Description: Conversion (R to Cit) of substrate peptides by PAD2, mass spectrometry. In kind it is biochemical. As to conditions: for Conversion by PAD2 (%): Table 10. The method, then: In a similar fashion as for PAD4 we identified improved peptide substrates for PAD2. Again L1 was used as a lead compound. The set of 152 peptides from Table 3 was used and testing was performed as described before.
Chain of PAD2 (Q9Y2J8 whole entry): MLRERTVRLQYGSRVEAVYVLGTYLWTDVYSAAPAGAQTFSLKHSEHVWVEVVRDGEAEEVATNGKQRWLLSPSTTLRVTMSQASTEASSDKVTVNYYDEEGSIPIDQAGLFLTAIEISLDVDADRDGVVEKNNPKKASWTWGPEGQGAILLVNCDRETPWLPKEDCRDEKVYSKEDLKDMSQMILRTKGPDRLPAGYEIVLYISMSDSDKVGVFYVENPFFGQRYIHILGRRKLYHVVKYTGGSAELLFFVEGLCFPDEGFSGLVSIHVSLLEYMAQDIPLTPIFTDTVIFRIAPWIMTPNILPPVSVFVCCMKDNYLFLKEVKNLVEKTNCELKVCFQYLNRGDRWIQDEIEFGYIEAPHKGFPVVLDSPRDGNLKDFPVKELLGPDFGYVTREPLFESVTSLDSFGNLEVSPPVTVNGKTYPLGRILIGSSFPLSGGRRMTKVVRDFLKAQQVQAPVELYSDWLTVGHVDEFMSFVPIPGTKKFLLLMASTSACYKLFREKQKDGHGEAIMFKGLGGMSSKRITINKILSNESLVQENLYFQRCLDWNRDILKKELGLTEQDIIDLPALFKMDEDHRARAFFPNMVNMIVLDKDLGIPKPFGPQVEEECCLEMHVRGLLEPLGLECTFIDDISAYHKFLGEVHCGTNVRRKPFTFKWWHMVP
as §1

[1] abbreviates: Table 5, peptides with two additional N-terminal F-residues.

Marks after values point to notes of the source that are not given here. Ends that are not written are not given here.

Chain of PAD4 (Q9UM07 whole entry): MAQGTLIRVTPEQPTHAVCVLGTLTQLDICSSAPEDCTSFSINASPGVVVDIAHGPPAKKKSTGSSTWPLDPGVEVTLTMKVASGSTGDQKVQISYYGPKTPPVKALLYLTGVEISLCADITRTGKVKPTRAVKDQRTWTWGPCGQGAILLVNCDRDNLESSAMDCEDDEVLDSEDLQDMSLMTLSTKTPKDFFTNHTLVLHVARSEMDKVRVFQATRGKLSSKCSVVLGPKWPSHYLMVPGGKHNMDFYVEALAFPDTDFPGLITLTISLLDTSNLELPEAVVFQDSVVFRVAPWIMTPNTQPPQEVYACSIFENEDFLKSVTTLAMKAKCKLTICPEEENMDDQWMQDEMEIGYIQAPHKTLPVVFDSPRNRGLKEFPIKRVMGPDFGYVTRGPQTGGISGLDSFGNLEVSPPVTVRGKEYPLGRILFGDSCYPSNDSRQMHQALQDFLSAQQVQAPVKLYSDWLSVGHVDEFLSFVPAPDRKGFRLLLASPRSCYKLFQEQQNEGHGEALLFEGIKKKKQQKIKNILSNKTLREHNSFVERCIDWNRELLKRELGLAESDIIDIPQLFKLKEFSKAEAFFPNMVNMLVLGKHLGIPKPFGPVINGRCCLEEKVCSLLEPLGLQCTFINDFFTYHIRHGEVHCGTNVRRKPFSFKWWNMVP

As for “D-S-K-K-F-D-R-D-H-L-Y-S-D (DSKKFDRDHLYSD; not fully specified (C-terminus); printed as D-S-K-K-F-D-R-D-H-L-Y-S-D) [Peptide 0708-15]”, in the assay with PAD4, the Conversion was 51 and the “Conversion by PAD4 (%)” value stood at 77%. For the same substance, the “Conversion by PAD2 (%)” value in the assay with PAD2 is on record as 90%.

As to “D-S-H-K-H-S-R-E-W-L-W-S-D (DSHKHSREWLWSD; not fully specified (C-terminus); printed as D-S-H-K-H-S-R-E-W-L-W-S-D) [Peptide 0608-36]”, in the assay with PAD4 (Table 4, 13-mer peptides), the “Conversion (%)” value was 90%. Also, in the assay with PAD4, the “Conversion by PAD4 (%)” value is given as 51%. The “Conversion by PAD2 (%)” value with PAD2 is recorded as 97%.

As for “D-S-K-K-F-D-R-G-H-L-Y-S-D (DSKKFDRGHLYSD; not fully specified (C-terminus); printed as D-S-K-K-F-D-R-G-H-L-Y-S-D) [Peptide 0708-30]”, in the assay with PAD4, the Conversion is 63 and the “Conversion by PAD4 (%)” value was determined as 80%. The “Conversion by PAD2 (%)” value with PAD2 was 90%.

Turning to “D-S-K-W-H-H-R-D-H-L-Y-S-D (DSKWHHRDHLYSD; not fully specified (C-terminus); printed as D-S-K-W-H-H-R-D-H-L-Y-S-D) [Peptide 0708-18]”, in the assay with PAD4, the Conversion amounted to 60 and the “Conversion by PAD4 (%)” value is 71%. Besides, the “Conversion by PAD2 (%)” value with PAD2 is recorded as 90%.

On to “D-S-K-K-H-D-R-D-H-L-W-S-D (DSKKHDRDHLWSD; not fully specified (C-terminus); printed as D-S-K-K-H-D-R-D-H-L-W-S-D) [Peptide 0708-20]”, for which, in the assay with PAD4, the Conversion was 62 and the “Conversion by PAD4 (%)” value was determined as 80%. The “Conversion by PAD2 (%)” value with PAD2 was found to be 95%.

Regarding “D-S-K-W-H-H-R-G-H-L-Y-S-D (DSKWHHRGHLYSD) [Peptide 0708-31]”, in the assay with PAD4, the Conversion came to 52 and the “Conversion by PAD4 (%)” value came to 71%. Also, the “Conversion by PAD2 (%)” value in the assay with PAD2 is on record as 96%.

Regarding “F-F-D-S-K-H-F-D-R-E-W-I-W-S-D (FFDSKHFDREWIWSD) [Peptide 0612-30]”, in the assay with PAD4 (setting [1]), the “Conversion (%)” value worked out at 100%. The “Conversion by PAD4 (%)” value with PAD4 is 89%. Moreover, the “Conversion by PAD2 (%)” value with PAD2 is recorded as 94 ** %.

On to “D-S-K-K-H-D-R-D-F-L-Y-S-D (DSKKHDRDFLYSD; not fully specified (C-terminus); printed as D-S-K-K-H-D-R-D-F-L-Y-S-D) [Peptide 0608-31]”, for which, in the assay with PAD4 (Table 4, 13-mer peptides), the “Conversion (%)” value is given as 100% (=L2). Also, in the assay with PAD4, the Conversion is listed as 45 (=L2) and the “Conversion by PAD4 (%)” value is 58(=L2) %. Moreover, the “conversion of L2 analogs by PAD4” value with PAD4 (relative to conversion of L2 (L2 = 100), single substitution at positions -4 to 4) is 100%. Further, in the assay with PAD2, the “Conversion by PAD2 (%)” value was 84(=L2) %.

As to “D-S-K-K-K-H-R-E-W-V-W-S-D (DSKKKHREWVWSD; not fully specified (C-terminus); printed as D-S-K-K-K-H-R-E-W-V-W-S-D) [Peptide 0608-32]”, the “Conversion by PAD4 (%)” value in the assay with PAD4 is recorded as 72%. In addition, the “Conversion by PAD2 (%)” value in the assay with PAD2 stood at 100%.

For the substance “D-S-K-K-L-H-R-D-H-M-E-S-D (DSKKLHRDHMESD; not fully specified (C-terminus); printed as D-S-K-K-L-H-R-D-H-M-E-S-D) [Peptide 0608-29]”, the “Conversion by PAD4 (%)” value with PAD4 is listed as 65%. Further, in the assay with PAD2, the “Conversion by PAD2 (%)” value turned out to be 90%.

In the case of “F-F-D-S-K-K-W-S-R-E-Y-F-F-S-D (FFDSKKWSREYFFSD) [Peptide 0612-32]”, the “Conversion (%)” value in the assay with PAD4 (setting [1]) is on record as 100%. Besides, in the assay with PAD4, the “Conversion by PAD4 (%)” value was found to be 76%. Besides, the “Conversion by PAD2 (%)” value with PAD2 was determined as 94%.

“D-S-K-F-A-F-R-G-G-I-A-S-D (DSKFAFRGGIASD; not fully specified (C-terminus); printed as D-S-K-F-A-F-R-G-G-I-A-S-D) [Peptide 0735-41]”: the “Conversion by PAD4 (%)” value with PAD4 stood at 25%. The “Conversion (%)” value with PAD2 (Table 9, PAD2) is 90%. Besides, the “Conversion by PAD2 (%)” value with PAD2 came to 90%.

“D-S-K-K-F-H-R-G-F-L-Y-S-D (DSKKFHRGFLYSD; not fully specified (C-terminus); printed as D-S-K-K-F-H-R-G-F-L-Y-S-D) [Peptide 0708-33]”: in the assay with PAD4, the Conversion came to 60 and the “Conversion by PAD4 (%)” value is on record as 73%. For the same substance, the “Conversion by PAD2 (%)” value in the assay with PAD2 is 100%.

For the substance “F-F-D-S-H-K-L-H-R-E-W-M-W-S-D (FFDSHKLHREWMWSD) [Peptide 0612-46]”, in the assay with PAD4 (setting [1]), the “Conversion (%)” value stood at 100%. In addition, in the assay with PAD4, the “Conversion by PAD4 (%)” value was 91%. Moreover, the “Conversion by PAD2 (%)” value with PAD2 was 92 ** %.

As for “F-F-D-S-H-K-H-S-R-E-W-L-W-S-D (FFDSHKHSREWLWSD) [Peptide 0612-38]”, the “Conversion (%)” value with PAD4 (setting [1]) was found to be 100%. Moreover, the “Conversion by PAD4 (%)” value with PAD4 was 72%. Besides, the “Conversion by PAD2 (%)” value with PAD2 came out at 96%.

For “F-F-D-S-H-K-F-D-R-D-F-I-Y-S-D (FFDSHKFDRDFIYSD) [Peptide 0612-45]”, in the assay with PAD4 (setting [1]), the “Conversion (%)” value is listed as 100%. Moreover, the “Conversion by PAD4 (%)” value with PAD4 is reported as 94%. For the same substance, the “Conversion by PAD2 (%)” value with PAD2 is on record as 97 ** %.

With “F-F-D-S-K-K-K-H-R-E-W-V-W-S-D (FFDSKKKHREWVWSD) [Peptide 0612-34]”, the “Conversion (%)” value in the assay with PAD4 (setting [1]) is recorded as 100%. In the assay with PAD4, the “Conversion by PAD4 (%)” value is reported as 76%. Besides, in the assay with PAD2, the “Conversion by PAD2 (%)” value amounted to 99%.

Regarding “D-S-H-K-F-D-R-D-F-I-Y-S-D (DSHKFDRDFIYSD; not fully specified (C-terminus); printed as D-S-H-K-F-D-R-D-F-I-Y-S-D) [Peptide 0608-43]”, the “Conversion (%)” value with PAD4 (Table 4, 13-mer peptides) came out at 100%. For the same substance, the “Conversion by PAD4 (%)” value with PAD4 is on record as 79%. The “Conversion by PAD2 (%)” value in the assay with PAD2 is on record as 90 ** %.

Turning to “D-S-K-K-H-F-R-G-K-L-Y-S-D (DSKKHFRGKLYSD; not fully specified (C-terminus); printed as D-S-K-K-H-F-R-G-K-L-Y-S-D) [Peptide 0708-32]”, in the assay with PAD4, the Conversion was determined as 24 and the “Conversion by PAD4 (%)” value stood at 22%. For the same substance, in the assay with PAD2, the “Conversion by PAD2 (%)” value was 96%.

On to “D-S-K-H-K-S-R-D-F-V-Y-S-D (DSKHKSRDFVYSD; not fully specified (C-terminus); printed as D-S-K-H-K-S-R-D-F-V-Y-S-D) [Peptide 0608-27]”, for which the “Conversion by PAD4 (%)” value with PAD4 is 69%. In addition, the “Conversion by PAD2 (%)” value with PAD2 turned out to be 94%.

For “D-S-K-K-F-H-R-D-F-L-Y-S-D (DSKKFHRDFLYSD; not fully specified (C-terminus); printed as D-S-K-K-F-H-R-D-F-L-Y-S-D) [Peptide 0708-25]”, in the assay with PAD4, the Conversion amounted to 56 and the “Conversion by PAD4 (%)” value is given as 64%. Further, the “Conversion by PAD2 (%)” value with PAD2 stood at 97%.

“D-S-K-H-F-H-R-D-F-I-Y-S-D (DSKHFHRDFIYSD; not fully specified (C-terminus); printed as D-S-K-H-F-H-R-D-F-I-Y-S-D) [Peptide 0608-23]”: the “Conversion by PAD4 (%)” value in the assay with PAD4 came to 69%. Besides, in the assay with PAD2, the “Conversion by PAD2 (%)” value is listed as 94%.

Consider “D-S-K-K-Y-D-R-G-F-L-W-S-D (DSKKYDRGFLWSD; not fully specified (C-terminus); printed as D-S-K-K-Y-D-R-G-F-L-W-S-D) [Peptide 0708-34]”, for which, in the assay with PAD4, the Conversion was 64 and the “Conversion by PAD4 (%)” value was determined as 81%. Moreover, in the assay with PAD2, the “Conversion by PAD2 (%)” value was 93%.

For “D-S-K-K-Y-D-R-D-F-L-W-S-D (DSKKYDRDFLWSD; not fully specified (C-terminus); printed as D-S-K-K-Y-D-R-D-F-L-W-S-D) [Peptide 0708-29]”, in the assay with PAD4, the Conversion came to 61 and the “Conversion by PAD4 (%)” value is 76%. In the assay with PAD2, the “Conversion by PAD2 (%)” value stood at 92%.

The values are drawn from patent US8404647B2, “Peptidylarginine deiminase (PAD) inhibitors” (Chiralix B.V., priority 2008, dated 2013).
